According to IntAct's records for PubMed 21858148:

Key:
apc_human APC [1] = target: apc_human APC (UniProt P25054)
apc_human APC [2] = target: apc_human APC (UniProt P25054); remark: listed apart in the source

Chain of apc_human APC (P25054 whole entry): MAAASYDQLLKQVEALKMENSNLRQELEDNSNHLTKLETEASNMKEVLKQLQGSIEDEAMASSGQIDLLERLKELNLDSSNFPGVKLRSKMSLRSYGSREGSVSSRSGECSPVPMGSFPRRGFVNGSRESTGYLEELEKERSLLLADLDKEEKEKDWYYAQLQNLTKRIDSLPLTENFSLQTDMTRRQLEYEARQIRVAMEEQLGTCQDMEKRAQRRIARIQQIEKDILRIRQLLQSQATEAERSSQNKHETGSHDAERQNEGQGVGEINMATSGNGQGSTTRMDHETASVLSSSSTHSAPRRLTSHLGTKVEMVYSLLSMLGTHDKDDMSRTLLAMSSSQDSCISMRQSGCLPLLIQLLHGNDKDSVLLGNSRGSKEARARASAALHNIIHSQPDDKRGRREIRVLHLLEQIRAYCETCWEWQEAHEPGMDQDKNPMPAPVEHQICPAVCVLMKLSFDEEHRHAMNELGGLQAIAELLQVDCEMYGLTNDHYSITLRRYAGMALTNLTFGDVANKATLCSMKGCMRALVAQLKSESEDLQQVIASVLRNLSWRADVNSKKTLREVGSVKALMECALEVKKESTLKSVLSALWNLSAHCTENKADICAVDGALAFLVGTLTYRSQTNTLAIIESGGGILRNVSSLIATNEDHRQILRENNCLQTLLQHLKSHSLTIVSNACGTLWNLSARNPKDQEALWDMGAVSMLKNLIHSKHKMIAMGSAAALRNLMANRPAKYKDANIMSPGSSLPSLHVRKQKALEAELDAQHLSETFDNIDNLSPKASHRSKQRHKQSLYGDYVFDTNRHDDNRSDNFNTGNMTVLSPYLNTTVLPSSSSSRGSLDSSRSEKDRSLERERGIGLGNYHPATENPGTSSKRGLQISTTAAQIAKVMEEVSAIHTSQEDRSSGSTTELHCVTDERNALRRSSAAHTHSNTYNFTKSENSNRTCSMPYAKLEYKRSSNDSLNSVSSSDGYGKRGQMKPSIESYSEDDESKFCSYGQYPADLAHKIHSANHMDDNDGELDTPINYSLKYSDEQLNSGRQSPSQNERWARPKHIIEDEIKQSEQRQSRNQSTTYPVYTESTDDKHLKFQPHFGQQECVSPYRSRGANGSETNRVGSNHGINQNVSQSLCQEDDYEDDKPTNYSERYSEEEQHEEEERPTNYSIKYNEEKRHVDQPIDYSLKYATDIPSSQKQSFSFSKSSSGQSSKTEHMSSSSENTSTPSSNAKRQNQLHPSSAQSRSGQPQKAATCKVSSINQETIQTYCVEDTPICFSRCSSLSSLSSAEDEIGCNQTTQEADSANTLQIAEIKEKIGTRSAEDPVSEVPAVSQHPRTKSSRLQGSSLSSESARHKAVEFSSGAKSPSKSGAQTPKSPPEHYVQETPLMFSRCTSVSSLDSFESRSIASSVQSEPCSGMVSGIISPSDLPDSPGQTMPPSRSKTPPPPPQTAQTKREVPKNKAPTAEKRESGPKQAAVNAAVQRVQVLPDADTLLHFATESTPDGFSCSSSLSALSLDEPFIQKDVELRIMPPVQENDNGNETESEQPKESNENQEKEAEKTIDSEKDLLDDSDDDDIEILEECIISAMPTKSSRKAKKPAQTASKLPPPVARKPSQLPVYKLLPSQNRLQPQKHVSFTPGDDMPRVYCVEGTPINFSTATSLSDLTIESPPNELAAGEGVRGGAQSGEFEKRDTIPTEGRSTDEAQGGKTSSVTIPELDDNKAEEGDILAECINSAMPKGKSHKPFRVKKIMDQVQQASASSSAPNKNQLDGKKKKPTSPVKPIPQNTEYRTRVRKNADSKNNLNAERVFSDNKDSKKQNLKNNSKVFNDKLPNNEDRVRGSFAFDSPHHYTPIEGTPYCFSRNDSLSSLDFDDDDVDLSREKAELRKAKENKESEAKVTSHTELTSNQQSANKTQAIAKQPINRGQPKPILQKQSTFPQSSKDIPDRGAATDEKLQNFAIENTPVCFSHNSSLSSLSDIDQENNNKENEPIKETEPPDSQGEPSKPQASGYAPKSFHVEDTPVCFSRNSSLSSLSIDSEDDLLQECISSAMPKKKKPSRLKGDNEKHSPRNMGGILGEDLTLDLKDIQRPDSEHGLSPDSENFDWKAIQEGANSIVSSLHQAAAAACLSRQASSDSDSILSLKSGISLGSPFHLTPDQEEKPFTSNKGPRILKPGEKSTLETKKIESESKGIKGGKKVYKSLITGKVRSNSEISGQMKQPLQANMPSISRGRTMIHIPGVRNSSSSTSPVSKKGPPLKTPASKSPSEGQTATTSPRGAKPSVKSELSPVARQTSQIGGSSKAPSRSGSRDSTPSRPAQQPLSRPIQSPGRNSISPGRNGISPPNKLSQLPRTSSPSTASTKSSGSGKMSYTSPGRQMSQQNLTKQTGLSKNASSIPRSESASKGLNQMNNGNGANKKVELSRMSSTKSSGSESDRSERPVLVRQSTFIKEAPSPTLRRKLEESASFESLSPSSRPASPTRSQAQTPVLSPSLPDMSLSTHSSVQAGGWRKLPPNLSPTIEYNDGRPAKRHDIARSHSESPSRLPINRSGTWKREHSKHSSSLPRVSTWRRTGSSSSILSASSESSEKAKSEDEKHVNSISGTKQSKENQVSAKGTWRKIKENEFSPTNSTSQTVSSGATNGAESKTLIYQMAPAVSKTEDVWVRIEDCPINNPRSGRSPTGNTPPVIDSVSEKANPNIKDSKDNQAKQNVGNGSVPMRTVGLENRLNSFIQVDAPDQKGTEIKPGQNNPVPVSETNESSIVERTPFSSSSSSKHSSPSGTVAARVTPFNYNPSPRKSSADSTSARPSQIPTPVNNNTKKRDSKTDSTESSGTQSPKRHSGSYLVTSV
Chain of Disks large homolog 1 (Homo sapiens) (Q12959 whole entry, looked up, stated change not applied): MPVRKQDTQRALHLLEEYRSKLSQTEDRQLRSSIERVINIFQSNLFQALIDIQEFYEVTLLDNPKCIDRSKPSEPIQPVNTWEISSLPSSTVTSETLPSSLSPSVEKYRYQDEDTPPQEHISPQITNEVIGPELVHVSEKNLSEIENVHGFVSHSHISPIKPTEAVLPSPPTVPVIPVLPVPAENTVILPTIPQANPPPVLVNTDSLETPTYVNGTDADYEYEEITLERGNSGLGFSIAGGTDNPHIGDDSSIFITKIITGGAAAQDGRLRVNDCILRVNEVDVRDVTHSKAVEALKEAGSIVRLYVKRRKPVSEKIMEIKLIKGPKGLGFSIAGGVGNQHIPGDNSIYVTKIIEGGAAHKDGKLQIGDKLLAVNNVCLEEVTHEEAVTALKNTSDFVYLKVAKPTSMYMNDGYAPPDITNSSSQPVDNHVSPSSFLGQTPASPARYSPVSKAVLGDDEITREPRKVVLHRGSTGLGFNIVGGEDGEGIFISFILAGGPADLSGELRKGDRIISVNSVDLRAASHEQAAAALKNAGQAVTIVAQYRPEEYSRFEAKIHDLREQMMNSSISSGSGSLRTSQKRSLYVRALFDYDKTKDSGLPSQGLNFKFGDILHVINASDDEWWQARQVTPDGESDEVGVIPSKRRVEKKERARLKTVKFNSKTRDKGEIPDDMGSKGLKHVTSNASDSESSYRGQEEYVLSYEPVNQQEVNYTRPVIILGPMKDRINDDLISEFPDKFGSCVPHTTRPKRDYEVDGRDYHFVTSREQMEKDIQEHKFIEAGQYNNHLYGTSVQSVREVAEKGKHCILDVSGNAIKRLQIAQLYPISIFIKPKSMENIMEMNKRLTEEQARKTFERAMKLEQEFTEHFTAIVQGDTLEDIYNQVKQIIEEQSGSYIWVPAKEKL

- effect of a mutation on the interaction (apc_human APC [1]): decreasing interaction strength
- effect of a mutation on the interaction (apc_human APC [2]): disrupting interaction strength
Substance: Disks large homolog 1 (Homo sapiens) (from UniProt Q12959) Q340P
